Test results taken from US20190185531A1.

Assays:
Assay in all cases: competition fluorescence anisotropy against fluoresceinated Bim BH3
[1] = biological target: human Mcl-1 (c-myc-tagged) (human) (UniProt Q07820)
[2] = biological target: Bcl-xL (c-myc-tagged) (human) (UniProt Q07817)
[3] = biological target: Bcl-2 (c-myc-tagged) (human) (UniProt P10415)
[4] = biological target: T1, Bcl-w (c-myc-tagged) (human) (UniProt Q92843)
T1 sequence (looked up): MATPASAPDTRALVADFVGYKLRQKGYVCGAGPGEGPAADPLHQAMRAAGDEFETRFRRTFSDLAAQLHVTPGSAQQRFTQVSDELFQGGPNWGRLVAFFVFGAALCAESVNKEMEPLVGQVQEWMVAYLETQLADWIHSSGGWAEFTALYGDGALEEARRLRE

Measured: fold specificity for Bfl-1 relative to this protein

Bcl-2 (c-myc-tagged) (human), sequence (P10415 1-217 limits assumed): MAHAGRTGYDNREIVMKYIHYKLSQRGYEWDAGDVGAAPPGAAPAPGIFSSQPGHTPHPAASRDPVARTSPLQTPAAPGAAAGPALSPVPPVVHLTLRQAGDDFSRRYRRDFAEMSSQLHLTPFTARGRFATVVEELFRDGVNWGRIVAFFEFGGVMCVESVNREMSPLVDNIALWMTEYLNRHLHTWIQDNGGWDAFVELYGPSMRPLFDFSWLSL
human Mcl-1 (c-myc-tagged) (human), sequence (Q07820 172-327 limits assumed): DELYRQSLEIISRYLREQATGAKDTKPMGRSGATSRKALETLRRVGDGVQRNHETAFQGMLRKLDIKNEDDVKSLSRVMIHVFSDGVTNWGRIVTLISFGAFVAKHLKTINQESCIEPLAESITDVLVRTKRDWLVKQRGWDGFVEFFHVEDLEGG
Bcl-xL (c-myc-tagged) (human), sequence (Q07817 1-209): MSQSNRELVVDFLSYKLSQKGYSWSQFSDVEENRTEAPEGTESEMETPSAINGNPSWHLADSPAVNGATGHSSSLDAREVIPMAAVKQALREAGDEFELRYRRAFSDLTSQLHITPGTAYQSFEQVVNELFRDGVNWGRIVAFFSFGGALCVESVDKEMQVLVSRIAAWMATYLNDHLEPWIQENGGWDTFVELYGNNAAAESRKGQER

Ac-QWVREIAAGLRLAADNVNAQLER-NH2 [FS1]
> 150 fold: all assays above
